According to doi:10.1101/2020.10.18.344481:

Key:
[1] = molecular target: Thiomicrospira Cas2 (Thiomicrospira); assay: cryo-EM structure
[2] = molecular target: Thiomicrospira Cas6-RT-Cas1 fusion protein (Thiomicrospira); assay: cryo-EM structure

Substance | stoichiometry N [1] | stoichiometry N [2]
Thiomicrospira Cas2 (natural protein) | 2 | 
Thiomicrospira Cas6-RT-Cas1 fusion protein (enzyme) |  | 2
